Experimental data as given in patent US20060252677A1.
Where “and” joins values, the source holds several entries; their conditions need not be identical. Identical values can stand only once.

Target: T1, Protein-X (novel PSD) expressed from injected RNA in Xenopus oocytes (human) (UniProt Q5T2T1)
T1 sequence: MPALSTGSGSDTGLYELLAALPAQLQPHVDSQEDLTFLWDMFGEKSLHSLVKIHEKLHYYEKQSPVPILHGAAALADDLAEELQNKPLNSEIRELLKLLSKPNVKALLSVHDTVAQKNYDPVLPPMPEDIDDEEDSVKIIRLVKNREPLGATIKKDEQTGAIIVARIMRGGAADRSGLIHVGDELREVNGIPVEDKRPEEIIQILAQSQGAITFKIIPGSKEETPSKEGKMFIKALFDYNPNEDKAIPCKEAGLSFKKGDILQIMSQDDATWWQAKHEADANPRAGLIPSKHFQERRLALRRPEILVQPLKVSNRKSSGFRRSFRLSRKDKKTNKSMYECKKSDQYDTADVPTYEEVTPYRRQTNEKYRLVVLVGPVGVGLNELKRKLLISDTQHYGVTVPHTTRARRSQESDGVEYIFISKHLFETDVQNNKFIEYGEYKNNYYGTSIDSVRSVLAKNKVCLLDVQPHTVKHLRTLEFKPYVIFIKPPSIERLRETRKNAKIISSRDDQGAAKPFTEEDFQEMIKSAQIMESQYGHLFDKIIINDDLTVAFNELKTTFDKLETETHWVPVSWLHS
Assay: cell-based or functional assay

current response to the ligand stimulation of the NMDA receptor in oocytes, against Protein-X alone: 7 times and 8 times
B1: PJ01087 protein (Protein-Y) expressed from injected RNA in Xenopus oocytes (protein)
chain: MRGYHGDRGSHPRPARFADQQHMDVGPAARAPYLLGSREAFSTEPRFCAPRAGLGHISPEGPLSLSEGPSVGPEGGPAGAGVGGGSSTFPRMYPGQGPFDTCEDCVGHPQGKGAPRLPPTLLDQFEKQLPVQQDGFHTLPYQRGPAGAGPGPAPGTGTAPEPRSESPSRIRHLVHSVQKLFAKSHSLEAPGKRDYNGPKAEGRGGSGGDSYPGPGSGGPHTSHHHHHHHHHHHHQSRHGKRSKSKDRKGDGRHQAKSTGWWSSDDNLDSDSGFLAGGRPPGEPGGPFCLEGPDGSYRDLSFKGRSGGSEGRCLACTGMSMSLDGQSVKRSAWHTMMVSQGRDGYPGAGPGKGLLGPETKAKARTYHYLQVPQDDWGGYPTGGKDGEIPCRRMRSGSYIKAMGDEESGDSDGSPKTSPKAVARRFTTRRSSSVDQARINCCVPPRIHPRSSIPGYSRSLTTGQLSDELNQQLEAVCGSVFGELESQAVDALDLPGCFRMRSHSYLRAIQAGCSQDDDCLPLLATPAAVSGRPGSSFNFRKAPPPIPPGSQAPPRISITAQSSTDSAHESFTAAEGPARRCSSADGLDGPAMGARTLELAPVPPRASPKPPTLIIKTIPGREELRSLARQRKWRPSIGVQVETISDSDTENRSRREFHSIGVQVEEDKRRARFKRSNSVTAGVQADLELEGLAGLATVATEDKALQFGRSFQRHASEPQPGPRAPTYSVFRTVHTQGQWAYREGYPLPYEPPATDGSPGPAPAPTPGPGAGRRDSWIERGSRSLPDSGRASPCPRDGEWFIKMLRAEVEKLEHWCQQMEREAEDYELPEEILEKIRSAVGSTQLLLSQKVQQFFRLCQQSMDPTAFPVPTFQDLAGFWDLLQLSIEDVTLKFLELQQLKANSWKLLEPKEEKKVPPPIPKKPLRGRGVPVKERSLDSVDRQRQEARKRLLAAKRAASFRHSSATESADSIEIYIPEAQTRL
